From US20180177810A1 (UNIVERSITY OF NOTRE DAME DU LAC, published 2018) come the findings set out here.

Where no end group is shown, it is not given here.

This test addresses T1, Very late antigen-4 (VLA-4; α4β1 integrin) on multiple myeloma cell lines (human, UniProt P13612 34-1032; P05556 21-798).
T1 construct: whole, on cells; also called VLA-4 receptor
The experiment in a line: peptide screen of Example 1 (FITC-labeled peptides on MM cells, flow cytometry).

T1 sequence (P13612 34-1032, chain 1 of 2): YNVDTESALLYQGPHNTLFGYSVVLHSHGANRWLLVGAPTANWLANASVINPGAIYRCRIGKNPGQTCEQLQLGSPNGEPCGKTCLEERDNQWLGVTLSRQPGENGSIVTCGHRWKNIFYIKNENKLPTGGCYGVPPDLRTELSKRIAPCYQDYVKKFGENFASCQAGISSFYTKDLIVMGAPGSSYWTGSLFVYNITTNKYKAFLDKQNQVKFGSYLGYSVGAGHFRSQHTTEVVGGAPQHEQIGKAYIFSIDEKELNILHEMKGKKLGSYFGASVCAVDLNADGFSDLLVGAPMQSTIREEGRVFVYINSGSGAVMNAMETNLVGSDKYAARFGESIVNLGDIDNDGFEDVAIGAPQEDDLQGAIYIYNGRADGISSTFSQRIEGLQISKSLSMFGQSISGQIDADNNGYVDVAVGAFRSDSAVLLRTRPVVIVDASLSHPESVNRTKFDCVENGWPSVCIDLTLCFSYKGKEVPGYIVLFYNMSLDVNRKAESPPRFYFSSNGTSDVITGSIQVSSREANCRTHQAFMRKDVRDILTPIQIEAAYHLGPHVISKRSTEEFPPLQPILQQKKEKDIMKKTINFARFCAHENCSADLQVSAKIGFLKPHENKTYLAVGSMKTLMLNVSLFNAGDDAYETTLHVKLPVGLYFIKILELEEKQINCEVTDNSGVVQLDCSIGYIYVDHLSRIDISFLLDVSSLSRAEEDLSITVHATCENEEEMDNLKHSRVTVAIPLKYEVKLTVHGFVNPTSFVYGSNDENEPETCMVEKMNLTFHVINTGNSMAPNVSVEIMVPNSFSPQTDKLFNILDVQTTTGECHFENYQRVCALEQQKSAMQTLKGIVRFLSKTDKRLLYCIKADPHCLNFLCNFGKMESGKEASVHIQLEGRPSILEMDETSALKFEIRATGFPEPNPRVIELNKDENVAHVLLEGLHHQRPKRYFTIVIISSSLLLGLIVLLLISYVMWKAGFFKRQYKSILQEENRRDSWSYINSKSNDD
T1 sequence (P05556 21-798, chain 2 of 2): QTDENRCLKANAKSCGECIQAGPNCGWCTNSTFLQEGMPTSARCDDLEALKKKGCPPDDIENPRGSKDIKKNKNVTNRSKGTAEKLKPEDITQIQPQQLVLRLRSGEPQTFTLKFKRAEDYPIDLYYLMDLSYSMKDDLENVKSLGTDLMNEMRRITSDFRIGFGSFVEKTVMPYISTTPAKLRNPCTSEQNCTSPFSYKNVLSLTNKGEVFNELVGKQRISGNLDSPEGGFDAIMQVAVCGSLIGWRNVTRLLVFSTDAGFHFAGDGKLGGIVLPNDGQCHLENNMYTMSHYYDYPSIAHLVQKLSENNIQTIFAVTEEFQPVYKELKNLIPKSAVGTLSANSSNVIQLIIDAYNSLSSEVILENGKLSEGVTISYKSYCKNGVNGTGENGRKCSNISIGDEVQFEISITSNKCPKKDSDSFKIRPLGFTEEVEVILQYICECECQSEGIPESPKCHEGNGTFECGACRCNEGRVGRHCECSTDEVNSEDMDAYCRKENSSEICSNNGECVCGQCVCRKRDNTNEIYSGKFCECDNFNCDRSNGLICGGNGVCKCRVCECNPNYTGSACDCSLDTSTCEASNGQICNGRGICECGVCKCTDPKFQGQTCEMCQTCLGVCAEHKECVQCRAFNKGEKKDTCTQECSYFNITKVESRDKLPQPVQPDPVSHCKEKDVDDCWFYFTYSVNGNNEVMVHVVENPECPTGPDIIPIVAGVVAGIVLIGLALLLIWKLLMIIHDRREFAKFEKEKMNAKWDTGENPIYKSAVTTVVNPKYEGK

B1: peptide sequence CFLDFP (peptide)
peptide: CFLDFP
modifications: not fully specified (C-terminus); also: FITC-labelled version synthesized for binding assays
notes: The assay for this peptide is not described separately
Consider B1, for which the binding result is recorded as “binds”.
